Article PMC4219717
One block for each substance: values may come before it.

Columns and labels:
GST-AHSP^WT (human) = GST-AHSP^WT (human) (UniProt Q9NZD4)
UniProt Q9NZD4, sequence (Q9NZD4 whole entry): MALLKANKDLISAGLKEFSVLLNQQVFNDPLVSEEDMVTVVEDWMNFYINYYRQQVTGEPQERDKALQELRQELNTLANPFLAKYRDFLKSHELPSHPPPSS

Substance: GST-α-Hb1-138 (domain or fragment)
CO recombination kinetics after flash photolysis of the GST-AHSP^WT/GST-α-Hb complex: fraction of the rapid (R) phase (GST-AHSP^WT (human)): 97 % R phase

Substance: native α-Hb (natural protein)
CO recombination kinetics after flash photolysis of the complex: fraction of the intermediate (I) phase (GST-AHSP^WT (human)): 100 % I phase

Substance: native β-Hb (natural protein)
CO recombination kinetics after addition of β-Hb and 1 mM IHP to the GST-AHSP^WT/GST-α-Hb complex: fraction of the rapid (R) phase (GST-α-Hb1-117 (human)): 88 % R phase | CO recombination kinetics after addition of β-Hb and 1 mM IHP to the GST-AHSP^WT/GST-α-Hb complex: fraction of the rapid (R) phase (GST-α-Hb1-126 (human)): 80 % R phase | CO recombination kinetics after addition of β-Hb and 1 mM IHP to the GST-AHSP^WT/GST-α-Hb complex: fraction of the rapid (R) phase (GST-α-Hb1-134 (human)): 84 % R phase | CO recombination kinetics after addition of β-Hb and 1 mM IHP to the GST-AHSP^WT/GST-α-Hb complex: fraction of the rapid (R) phase (GST-α-Hb1-138 (human)): 95 % R phase | CO recombination kinetics after addition of β-Hb and 1 mM IHP to the GST-AHSP^WT/GST-α-Hb^WT complex: fraction of the slow (T) phase (GST-α-Hb^WT (human)): 32 % T phase

Substance: GST-α-Hb1-134 (domain or fragment)
CO recombination kinetics after flash photolysis of the GST-AHSP^WT/GST-α-Hb complex: fraction of the intermediate (I) phase (GST-AHSP^WT (human)): 10 % I phase

Continued, values first:

CO recombination kinetics after flash photolysis of the GST-AHSP^WT/GST-α-Hb complex: fraction of the intermediate (I) phase (GST-AHSP^WT (human)): 19 % I phase
Substance: GST-α-Hb1-126 (domain or fragment)

CO recombination kinetics after flash photolysis of the GST-AHSP^WT/GST-α-Hb complex: fraction of the intermediate (I) phase (GST-AHSP^WT (human)): 20 % I phase
Substance: GST-α-Hb1-117 (domain or fragment)

CO recombination kinetics after flash photolysis of the GST-AHSP^WT/GST-α-Hb complex: fraction of the intermediate (I) phase (GST-AHSP^WT (human)): 100 % I phase
Substance: GST-α-Hb^WT (natural protein)
